Test results from patent US20240207216A1, “COMPOSITIONS AND METHOD FOR TREATING GUT PERMEABILITY CAUSED BY HYDROGEN SULFIDE PRODUCING BACTERIA” (UNM RAINFOREST INNOVATIONS, priority 2022, published 2024).

Experiments:
[1] = tested on: Desulfovibrio desulfuricans; details: cited from earlier work
[2] = tested on: Snail; assay: DSV-induced Snail protein expression by Western blot; format: cell-based, Human; details: IAP 500 U/ml pre-treatment 24 h, DSV 24 h; vs DSV+Veh
Method: FIG. 16. Rapamycin reduces DSV-induced Snail protein expression. Polarized Caco-2 cells were treated with 100 nM rapamycin for two hours, followed by DSV infection (MOI 20) for 24 hours. Cells were harvested and lysed. (A) Protein lysate was analyzed for Snail expression by Western blotting. (B) Quantitation of Snail expression from Western blot in (A). DSV: 7.14±0.73; DSV+Rapamycin: 3.10±0.74, **p<0.01.
Human colonic epithelial cells Caco-2 were purchased from the American Type Culture Collection (ATCC, Manassas, VA). Cells were grown in DMEM+20% FBS+penicillin and streptomycin (Thermo Fisher Scientific, Inc., Waltham, MA). Cells were grown at 37° C. in a humidified incubator with 5% CO2. To allow polarization and differentiation, cells were seeded at a density of 5×10^3 cells/well in 12-well 0.4 μm trans-well inserts for three weeks. Twenty-four hours before infection, growth medium was replaced with colorless medium (DMEM+20^0/o FBS) without antibiotics. […]
Cells were lysed in lysis buffer (Thermo Fisher Scientific, Inc., Waltham, MA; catalog #87787) containing protease and phosphatase inhibitors (Thermo Fisher Scientific, Inc., Waltham, MA; catalog #1861281) for 20 minutes at 4° C. with shaking. […] Protein concentration in the supernatants was determined with Bradford reagent (Bio-Rad Laboratories, Inc., Hercules, CA). […]

[3] = tested on: polarized Caco-2 cells; assay: DSV-induced paracellular permeability, 4 kDa FITC-dextran flux; format: cell-based, Human; details: IAP 500 U/ml apical and basolateral, 24 h before DSV MOI 20 for 24 h; vs DSV+Veh
Method: FIG. 7. Rapamycin reduces DSV-induced paracellular permeability. Human Caco-2 cells were grown in 0.4 μm trans-well inserts for three weeks to generate polarized intestinal epithelial monolayers. Cells were treated with 100 nM rapamycin, an inducer of autophagy, for two hours followed by DSV infection (MOI 20) for 24 hours. Barrier integrity was assessed by measuring paracellular flux of 4 kDa FITC-Dextran.
Human colonic epithelial cells Caco-2 were purchased from the American Type Culture Collection (ATCC, Manassas, VA). Cells were grown in DMEM+20% FBS+penicillin and streptomycin (Thermo Fisher Scientific, Inc., Waltham, MA). Cells were grown at 37° C. in a humidified incubator with 5% CO2. […]
Tight junction barrier integrity in 21-day old polarized Caco-2 cells grown in 12-well trans-well plates was assessed via transepithelial electric resistance (TEER) using EVOM meter (World Precision Instruments, LLC, Sarasota, FL). […] Paracellular permeability was quantified by measuring FITC-dextran flux (Fluorescein isothiocyanate-dextran 4000 (FD-4), Sigma-Aldrich, St. Louis, MO). […] After one hour of incubation, 100 μl of the basolateral medium was collected and analyzed for the presence of FITC fluorescence. Fluorescence was measured at the wavelengths of excitation at 485 nm and emission at 520 nm using a plate reader (Synergy HTX Multi-Mode Reader, BioTek, Winooski, VT). […]

[4] = tested on: Snail; assay: DSV-induced Snail nuclear localization by immunofluorescence; format: cell-based, Human; details: IAP pre-treatment, DSV infection; vs DSV+Veh
Method: FIG. 5. Intestinal Alkaline Phosphatase inhibits DSV-induced permeability by inhibiting Snail. Polarized Caco-2 cells were pre-treated with IAP (500 U/ml) at the apical and the basolateral surface for 24 hours prior to challenge with D. vulgaris. (A) FITC-dextran was added to the cells apically after 24 hours infection with D. vulgaris. Fluorescence was measured by taking out 100 μl medium from the basolateral surface after one-hour incubation. Graph represents Mean±SEM of % FITC-flux compared to uninfected control cells from at least three independent experiments. **p<0.01. (B) Snail protein expression was analyzed by Western blotting in cells pre-treated with or without IAP followed by infection with D. vulgaris. The solution in which IAP was supplied was used as a Vehicle control. Actin was used as a loading control. (C) Quantification of Western blot for detection of Snail. Graph represents Mean±SEM of ratio of Snail/Actin and values were normalized to control from at least three independent experiments. *p<0.05. (D) Cells were pre-treated with or without IAP followed by infection with D. vulgaris. Cells were fixed with 4% paraformaldehyde and probed by immunofluorescence for Snail staining. Graph represents quantification of % cells showing nuclear staining of Snail in control, DSV+Vehicle (Veh), or DSV+IAP treated groups. […]

[5] = tested on: occludin; assay: Occludin localization by immunofluorescence in DSV-infected cells; format: cell-based, Human; details: IAP pre-treatment, DSV infection (DSV+IAP)

For `[Bi]` [bismuth], the “growth of Desulfovibrio desulfuricans” value [1] is listed as “inhibits the growth”.

B1: intestinal alkaline phosphatase (protein, UniProt P09923 20-503, looked up)
Intestinal-type alkaline …: VIPAEEENPAFWNRQAAEALDAAKKLQPIQKVAKNLILFLGDGLGVPTVTATRILKGQKNGKLGPETPLAMDRFPYLALSKTYNVDRQVPDSAATATAYLCGVKANFQTIGLSAAARFNQCNTTRGNEVISVMNRAKQAGKSVGVVTTTRVQHASPAGTYAHTVNRNWYSDADMPASARQEGCQDIATQLISNMDIDVILGGGRKYMFPMGTPDPEYPADASQNGIRLDGKNLVQEWLAKHQGAWYVWNRTELMQASLDQSVTHLMGLFEPGDTKYEIHRDPTLDPSLMEMTEAALRLLSRNPRGFYLFVEGGRIDHGHHEGVAYQALTEAVMFDDAIERAGQLTSEEDTLTLVTADHSHVFSFGGYTLRGSSIFGLAPSKAQDSKAYTSILYGNGPGYVFNSGVRPDVNESESGSPDYQQQAAVPLSSETHGGEDVAVFARGPQAHLVHGVQEQSFVAHVMAFAACLEPYTACDLAPPACTTD
notes: host defense protein produced by enterocytes in the small intestine
In the case of B1, the Snail protein expression [2] is reported as “significantly reduced”, the “D. vulgaris-induced FITC-dextran flux” value [3] is reported as “inhibited” and the “percentage of cells with nuclear localization of Snail” value [4] is reported as “significant reduction”. For the same molecule, the occludin staining [5] was “comparable to control”.
